From US20080279864A1
Like-named read-outs stand apart in the source and are kept apart here. One block for each substance: values may come before it.

How the values were obtained:
[1] = biological target: N-type (CaV2.2) Ca2+ channel (α1B with β2a and α2δ) in HEK293 cells (human; rat) (UniProt Q00975); test: cell-based or functional assay
[2] = biological target: I-IIC-YFP (rabbit) (UniProt P15381); test: FRET two-hybrid, relative dissociation constant against the NTB-CFP/I-IIB-YFP pair
[3] = biological target: I-IIB-YFP (human) (UniProt Q00975); test: as above
Chain of I-IIB-YFP (human) (Q00975 357-482): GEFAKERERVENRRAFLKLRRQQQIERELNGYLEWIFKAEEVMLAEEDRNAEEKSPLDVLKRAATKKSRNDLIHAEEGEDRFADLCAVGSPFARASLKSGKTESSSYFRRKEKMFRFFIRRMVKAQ

[4] = biological target: I-IIB-YFP (human) (UniProt Q00975); test: as above; remark: listed apart in the source
[5] = biological target: I-IIC-CFP (rabbit) (UniProt P15381); test: as above
Chain of I-IIC-CFP (rabbit) (P15381 436-554): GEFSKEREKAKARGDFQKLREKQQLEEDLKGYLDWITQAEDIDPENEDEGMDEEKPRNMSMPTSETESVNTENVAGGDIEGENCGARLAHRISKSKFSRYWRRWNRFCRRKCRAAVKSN

[6] = biological target: NTB(1-44)-pGBKT7 (human); test: yeast two-hybrid auto-activation control (empty pGADT7), % of colonies surviving on high stringency plates, mean ± SEM
[7] = biological target: I-IIC(436-554)-pGBKT7 (I-II loop of α1C fused to the GAL4 binding domain) (rabbit); test: as above
[8] = biological target: NTB(56-95)-pGBKT7 (human); test: as above
[9] = biological target: I-IIB(357-482)-pGBKT7 (I-II loop of α1B fused to the GAL4 binding domain) (human); test: as above
[10] = biological target: NTB(1-44)-pGBKT7 (human); test: yeast two-hybrid auto-activation control (empty pGADT7), filter lift β-galactosidase assay, % of colonies turning blue, mean ± SEM
[11] = biological target: NTB(56-95)-pGBKT7 (human); test: as above
[12] = biological target: I-IIB(357-482)-pGBKT7 (I-II loop of α1B fused to the GAL4 binding domain) (human); test: as above

Chain of N-type (CaV2.2) Ca2+ channel (α1B with β2a and α2δ) in HEK293 cells (human; rat) (Q00975 whole entry, stated change not applied, chain 1 of 3, other chains not shown): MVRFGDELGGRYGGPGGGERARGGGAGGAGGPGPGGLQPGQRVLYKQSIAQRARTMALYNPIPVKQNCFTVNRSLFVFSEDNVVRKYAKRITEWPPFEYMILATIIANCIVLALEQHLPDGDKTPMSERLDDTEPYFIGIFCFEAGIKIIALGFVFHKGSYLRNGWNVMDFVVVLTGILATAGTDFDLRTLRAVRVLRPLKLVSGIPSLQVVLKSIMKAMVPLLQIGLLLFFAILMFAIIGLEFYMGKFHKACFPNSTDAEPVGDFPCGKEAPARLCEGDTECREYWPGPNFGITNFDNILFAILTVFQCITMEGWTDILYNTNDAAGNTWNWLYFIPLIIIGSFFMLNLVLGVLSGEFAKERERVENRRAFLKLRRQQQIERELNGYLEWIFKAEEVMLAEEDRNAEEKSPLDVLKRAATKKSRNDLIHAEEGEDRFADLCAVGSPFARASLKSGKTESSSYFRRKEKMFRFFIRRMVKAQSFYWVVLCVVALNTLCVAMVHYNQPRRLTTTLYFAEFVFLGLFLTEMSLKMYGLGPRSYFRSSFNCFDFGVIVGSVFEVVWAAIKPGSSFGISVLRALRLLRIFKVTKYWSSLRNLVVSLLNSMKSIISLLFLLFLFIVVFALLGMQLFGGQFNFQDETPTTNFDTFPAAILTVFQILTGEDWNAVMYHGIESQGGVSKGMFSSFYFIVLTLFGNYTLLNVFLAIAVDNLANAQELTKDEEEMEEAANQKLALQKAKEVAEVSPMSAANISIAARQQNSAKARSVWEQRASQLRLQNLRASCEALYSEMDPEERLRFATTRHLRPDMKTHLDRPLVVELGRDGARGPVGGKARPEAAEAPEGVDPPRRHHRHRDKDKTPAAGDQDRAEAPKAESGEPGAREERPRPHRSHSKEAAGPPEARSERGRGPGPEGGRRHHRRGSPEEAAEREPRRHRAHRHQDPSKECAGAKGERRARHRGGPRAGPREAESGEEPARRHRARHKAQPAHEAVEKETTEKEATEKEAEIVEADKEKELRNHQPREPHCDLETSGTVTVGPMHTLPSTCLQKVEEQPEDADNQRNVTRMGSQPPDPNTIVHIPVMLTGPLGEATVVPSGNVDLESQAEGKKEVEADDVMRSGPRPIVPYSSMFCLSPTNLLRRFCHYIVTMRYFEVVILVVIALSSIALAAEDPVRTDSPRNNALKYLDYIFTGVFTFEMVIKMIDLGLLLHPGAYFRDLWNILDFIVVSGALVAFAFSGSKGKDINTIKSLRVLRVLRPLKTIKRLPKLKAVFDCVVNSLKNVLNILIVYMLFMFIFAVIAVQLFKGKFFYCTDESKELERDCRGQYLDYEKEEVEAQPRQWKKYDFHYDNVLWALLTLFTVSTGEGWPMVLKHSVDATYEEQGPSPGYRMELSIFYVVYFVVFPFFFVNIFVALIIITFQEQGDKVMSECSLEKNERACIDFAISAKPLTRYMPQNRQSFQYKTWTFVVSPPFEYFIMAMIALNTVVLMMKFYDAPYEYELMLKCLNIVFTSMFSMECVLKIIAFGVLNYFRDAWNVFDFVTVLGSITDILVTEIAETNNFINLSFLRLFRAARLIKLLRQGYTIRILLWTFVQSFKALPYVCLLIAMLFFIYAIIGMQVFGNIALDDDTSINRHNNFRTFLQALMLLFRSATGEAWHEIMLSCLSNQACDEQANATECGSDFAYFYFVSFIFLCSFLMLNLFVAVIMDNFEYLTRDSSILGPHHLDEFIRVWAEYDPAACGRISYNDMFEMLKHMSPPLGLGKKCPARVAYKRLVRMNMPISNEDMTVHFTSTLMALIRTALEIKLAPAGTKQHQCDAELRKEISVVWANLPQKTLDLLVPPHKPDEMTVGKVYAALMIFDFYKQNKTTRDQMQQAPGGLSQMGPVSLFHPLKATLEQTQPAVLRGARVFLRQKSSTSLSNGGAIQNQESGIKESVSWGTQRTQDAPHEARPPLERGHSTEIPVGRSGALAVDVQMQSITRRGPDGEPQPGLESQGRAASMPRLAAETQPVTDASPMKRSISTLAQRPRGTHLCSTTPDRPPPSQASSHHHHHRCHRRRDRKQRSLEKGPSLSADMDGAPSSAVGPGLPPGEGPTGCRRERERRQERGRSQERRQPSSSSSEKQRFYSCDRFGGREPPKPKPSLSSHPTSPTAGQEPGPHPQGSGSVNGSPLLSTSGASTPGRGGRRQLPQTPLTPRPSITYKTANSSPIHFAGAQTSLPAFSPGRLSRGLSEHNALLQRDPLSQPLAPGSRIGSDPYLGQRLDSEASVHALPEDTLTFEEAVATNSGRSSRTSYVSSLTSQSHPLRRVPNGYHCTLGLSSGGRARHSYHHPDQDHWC
Chain of N-type (CaV2.2) Ca2+ channel (α1B with β2a and α2δ) in HEK293 cells (human; rat) (P54290 25-1091, stated change not applied, chain 3 of 3, other chains not shown, further chain): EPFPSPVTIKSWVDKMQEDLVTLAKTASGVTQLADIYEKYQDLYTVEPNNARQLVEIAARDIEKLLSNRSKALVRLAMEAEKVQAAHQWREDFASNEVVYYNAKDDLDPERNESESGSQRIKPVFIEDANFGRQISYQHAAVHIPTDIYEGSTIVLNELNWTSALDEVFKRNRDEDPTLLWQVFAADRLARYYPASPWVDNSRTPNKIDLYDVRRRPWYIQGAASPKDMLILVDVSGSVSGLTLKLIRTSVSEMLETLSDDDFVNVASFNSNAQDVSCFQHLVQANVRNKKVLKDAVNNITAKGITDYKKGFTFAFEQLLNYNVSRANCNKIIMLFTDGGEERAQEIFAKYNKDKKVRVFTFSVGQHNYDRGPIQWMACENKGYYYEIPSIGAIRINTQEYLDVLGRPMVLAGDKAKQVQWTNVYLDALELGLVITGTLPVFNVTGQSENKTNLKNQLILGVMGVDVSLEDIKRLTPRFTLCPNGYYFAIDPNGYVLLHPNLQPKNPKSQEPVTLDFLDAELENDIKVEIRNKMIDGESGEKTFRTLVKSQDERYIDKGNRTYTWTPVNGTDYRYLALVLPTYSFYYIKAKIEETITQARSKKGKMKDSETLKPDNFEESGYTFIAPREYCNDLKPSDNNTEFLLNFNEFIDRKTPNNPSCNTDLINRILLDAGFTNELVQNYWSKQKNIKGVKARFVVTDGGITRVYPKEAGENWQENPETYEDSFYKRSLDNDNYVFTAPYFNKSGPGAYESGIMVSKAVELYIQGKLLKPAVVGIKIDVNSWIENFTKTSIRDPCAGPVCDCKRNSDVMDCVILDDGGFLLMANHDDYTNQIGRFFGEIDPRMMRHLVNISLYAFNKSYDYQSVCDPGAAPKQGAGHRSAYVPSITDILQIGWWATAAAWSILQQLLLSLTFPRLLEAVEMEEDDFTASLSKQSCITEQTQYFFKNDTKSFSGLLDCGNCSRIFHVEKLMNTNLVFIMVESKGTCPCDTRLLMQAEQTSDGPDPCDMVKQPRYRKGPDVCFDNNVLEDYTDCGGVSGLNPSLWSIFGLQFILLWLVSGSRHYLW
Chain of I-IIC-YFP (rabbit) (P15381 436-554): as the sequence (P15381 436-554) above

W(∞), fraction of channels residing in the willing configuration at steady state, 0 mV (compound-state analysis) [1]: 0.6 | τ, time-constant with which the steady state is achieved, 0 mV (compound-state analysis) [1]: 60 ms
Substance: Gβγ (G protein β1 and γ2 subunits coexpressed) (from UniProt P62871 2-340; P63212 2-68)

Kd,EFF relative to NTB/I-IIB [2]: > 10 fold
Substance: NTB-CFP (from UniProt Q00975 1-95)

Kd,EFF relative to NTB/I-IIB [3]: 8 fold | Kd,EFF relative to NTB/I-IIB [4]: > 10 fold
Substance: NTC-CFP (from UniProt P15381 1-53)

Kd,EFF relative to NTB/I-IIB [5]: > 10 fold
Substance: NTC-YFP (from UniProt P15381 1-53)

Filter Lift Assay (%) [10]: 47.9% | Filter Lift Assay (%) [11]: 32.2% | Filter Lift Assay (%) [12]: 9.18%
Substance: pGADT7 (empty vector; the isolated GAL4 activating domain itself) (from UniProt P04386 768-881)
High Stringency (%) [6]: 0.98% | High Stringency (%) [7]: 8.44% | High Stringency (%) [8]: 2.11% | High Stringency (%) [9]: 18.7%
